assay: soluble on expression in E. coli; label from the status in PepcDB or PDB records

Sequence	soluble on expression in E. coli
GFVGRFGASSATTDRSKIFTADFRDFETSFSFQPGVFWGYDDFLSSALLLDIGYNKDKYELKYTVNGGRLLENYDFNSISFGLFPRLNISFVSIGVGGGIKIPLSLKYSKEGDAYSYNKYSLDFGDIKDSFETFYIPYVKVSLDFLIKTKGKFMMSLGVYANYDFPININRNGLLKDISIDKESIAAFDIGFQIGAYLVNR	not soluble
GMSSSGIEIAKPFVTATTNVLSTMAGIQPIPGQPYVKKNNVAKGDVSAVVGITGHKNGSISVTFTKQCAIAVVKAMLGDDIQDIIQDTKDAVGEVTNMISGQARAALSEMGMTFQGATPSVIMGDGHTISHVTKSPVIAIPFKTNHGEFTVEFCLE	soluble
MREEKGMDQKVYDAYLSILKAELVPALGCTEPITIAYASAIARECLGAFPDVIQIKASGNIIKNVKSVVVPGTNGMKGIEAAVAAGLVGGKSEKKLEVISEVTEEEKEQIRDLVEKEIIEVGIAGSDLLLDVQVQLKKGDDSVFVRIANAHTNVVLVEKNGVRLFEKAMDCGGDDAGLSQEKKLLSVEGILEFADQVKLEDIEDVISRQIAYNTAIADEGLAHNYGANIGKVLLQAYGDQDVRVRAKARAAAGSDARMSGCELPVIINSGSGNQGITASVPVIEYAKELKCGEEKMYRALVLSNLIAIHQKTGIGPLSAYCGAVSAGCASGAAIAYLNGGDLRTISHTIVNCLAIASGIVCDGAKASCAAKIGMSVEAGLLGYLMIEQDQQFRAGDGIVKKGVEETIRSVGRLGKDGMRETDREILEIMIGK	not soluble
MKLLSSIEQACDICRLKKLKCSKEKPKCAKCLKNNWECRYSPKTKRSPLTRAHLTEVESRLERLEF	soluble
MSALTPPTDMPTPTTDKITQAAMETIYLCKFRVSMDGEWLCLRELDDISLTPDPEPTHEDSWEDLTDLVEQVRADPEDPNYLMANERMNLMNMAKLSIKGLIESALNLGRTLDSDYAPLQQFFVVMEHCLKHGLKAKKTFLGQNKSFWGPLELVEKLVPEAAEITASVKDLPGLKTPVGRGRAWLRLALMQKKLSEYMKALINKKELLSEFYEVNALMMEEEGAIIAGLLVGLNVIDANFCMKGEDLDSQVGVIDFSMYLKDGNSSKGSEGDGQITAILDQKNYVEELNRHLNATVNNLQTKVDLLEKSNTKLTEELAVANNRIITLQEEMERVKEESSYLLESNRKGPKKTELQKGKR	soluble
GSLHRVPLRRHPSLKKKLRARSQLSEFWKSHNLDM	soluble
MGSDKIHHHHHHMFIETLNLSHFRNFSEVALSPSPKINIITGDNGSGKTSLLEAIYLLGFGRSFRPGGFRQLIKEGNSGFTVFCRSQDYAIGVRRSTDGEQSLRLNGANVQRMSDVARLVPVQLLTPESVDILLEGPGQRRQFIDWGVFHVEHSFYSDWVAYTQLLKQRNSLLKQRSLPVREDRYWKEQLAYYGERISKSREKYLEELNDYIQELAKSFLSDVTMEVRLKSGWDTSQSLFDALESHTEKDKKYGFTSVGAHKADIKVIADGVEVKHRLSRGQLKTAITALKLAQGKHYQKIKRQPCIYLVDDLTSELDSKNQALLCRELENLDAQVFITAITGKQLSDKFQKSPRMFHVEHGVINE	not soluble
MGSDKIHHHHHHMARDLQNHLLFEVATEVTNRVGGIYSVLKSKAPVTVAQYGDNYTLLGPLNKATYESEVEKLDWEDESIFPEELLPIQKTLMSMREKGVNFVYGNWLIEGAPRVILFELDSVRHFLNEWKADLWSLVGIPSPEHDHETNDAILLGYVVVWFLGEVSKLDSSHAIIGHFHEWLAGVALPLCRKKRIDVVTIFTTHATLLGRYLCAAGDVDFYNNLQYFDVDQEAGKRGIYHRYCIERAAAHTADVFTTVSQITALEAEHLLKRKPDGILPNGLNVVKFQAVHEFQNLHALKKDKINDFVRGHFHGCFDFDLDNTVYFFIAGRYEYKNKGADMFIESLARLNYRLKVSGSKKTVVAFLIMPAKTNSFTVEALKSQAIVKSLENTVNEVTASIGKRIFEHTMRYPHNGLESELPTNLDELLKSSEKVLLKKRVLALRRPYGELPPVVTHNMCDDANDPILNQIRHVRLFNDSSDRVKVIFHPEFLNANNPILGLDYDEFVRGCHLGVFPSYYEPWGYTPAECTVMGVPSITTNVSGFGAYMEDLIETDQAKDYGIYIVDRRFKSPDESVEQLADYMEEFVNKTRRQRINQRNRTERLSDLLDWKRMGLEYVKARQLGLRRAYPEQFKQLVGETISDANMNTLAGGKKFKIARPLSVPGSPKVRSNSTVYMTPGDLGTLQDANNADDYFNLSTNGAIDNDDDDNDTSAYYEDN	not soluble
MEQRLLAVFDFDGTITRHDSFVPFLKFAFGQRVFSVRMARLVLPSLGYLTKRLSRDELKGRLIKAFLSGVEVQWLQQKAEAFCHSHWKRLMRPAALESIAAEIEKGAIVTLCSASPAMVLQPFADRLKVELIGTNLEVIDGKLTGLIEGSNCRCDSKVARLESVYGPLTQFRVRAWGDTRGDHELLAAAQDAHWRLFHPTWRRGRYKGPVNAKLHNPDGKDGPTR	not soluble
MGHHHHHHSHMVDIDLPEPPKPTPPDQETEEEQRFRALFEQVAGEDMEVTAEELEYVLNAVLQKKKDIKFKKLSLISCKNIISLMDTSGNGKLEFDEFKVFWDKLKQWINLFLRFDADKSGTMSTYELRTALKAAGFQLSSHLLQLIVLRYADEELQLDFDDFLNCLVRLENASRVFQALSTKNKEFIHLNINEFIHLTMNI	soluble
MSLRHSGAPLSPRNVCPMKTIAPCMAAMMLLSGCNGVPTSYVSDPVYSQAFVVTSGAPLPMLLMASAIQWNEDYAVTAKHTPFLRNVVHEGLGDVVFFKHKASSVPHWRQYVPGEAVTAVGFNSFMMPMQGKGHALSSLVRLEGTPGSVFYSVHDGPITKGMSGGPVFADDGKVVGINVAIIPTDEINAGKRPDLVGKDRISVFMSFSEIDKEWRRYQYLLAHKAKPKAPAAVKGYVAVAAKEGHHHHHH	not soluble
MRGSHHHHHHGSALSNKFIGDDMKMTYHMDGCVNGHYFTVKGEGNGKPYEGTQTSTFKVTMANGGPLAFSFDILSTVFKYGNRCFTAYPTSMPDYFKQAFPDGMSYERTFTYEDGGVATASWEISLKGNCFEHKSTFHGVNFPADGPVMAKKTTGWDPSFEKMTVCDGILKGDVTAFLMLQGGGNYRCQFHTSYKTKKPVTMPPNHVVEHRIARTDLDKGGNSVQLTEHAVAHITSVVPF	soluble
MSLGSAIETLERLLKKRLRVPQEQLDTNPWLLNCANGTVDLRTGTLKAHRPEDYITRVVPLNFDPKATAPEFITTLARITCEEGQAGKPLCAFLQRWFGYCATGEVREQKFAVLYGDGNNGKSTLLDLITGILGRYSGVAAPGLLTGKNGPQHPNAIADLAGRRMVTTHESGEGEVLREDFVKQATGGDTLKARYLYGEFFEFKPTHKLQLLTNHKPAIKGQDSGIWRRIMLIPFKAKFDAAEGEEIGNGKYPRDMRIAEKLAAEREGVLAWIVAGAVEWYKNGLRPPDIVLAASEDYKEEQDRVGQFIDEECELGVEKEEKLSTPMGGGLYPAYTQWCKASGVCALSKVRFLGGLERRVPGFKKKVTKETVGAGKRREFVVIQGVALVDADEGHHHHHH	not soluble
MGSDKIHHHHHHMRVIDGGVTAPKGFKANGYKEGKFGVAIIISEKDAVGAGTFTTNKVVAHPVVLSRELIKNRDKFRAIVANSGNANCFTKDGMEDAKEMQRLVAELFNINEDEVLVASTGVIGRKMDMNIIKDRINKVYNLIKEGNSSINAAKAIMTTDTKPKEIAVEFEVNGKTVRVGGIAKGAGMIAPNMLHATMLCFITTDIEIDKESLTNILQKVVDKTFNNISVDGDTSTNDTVFVLANGLSGVNYEECGEEFENALLYVCRELAKMIVKDGEGATKFMEVVVKGAKTEEDAVKASKAIVNSLLVKTAVFGGDPNWGRIVAAVGYSGADFNPEVVDVILSNYKDEVYLVKDGIPLADEGTEELKKAEEIMKSDEIKIVVDLKMGEFENVCYGCDLSYEYVRINAEYTT	not soluble
MGSDKIHHHHHHMEINKIYCMDCLEGMKQLKDKTVDVVVTSPPYNIGIKYNKYSDNLSREDYLNWIEEVVKEIKRVLKDDGSFFINVGYTAKDPWIAFDVANVIRKHFKLQNTIHWVKSIAIQKEDVGNYPNIIGDIAVGHYKPINSDRFLSIMHEYIFHFTKNGNVKLDKLAIGVPYQDKSNIKRFNRKGDLRDRGNTWFIPYETIQSKEKERPHPATFPPKLPEMCIKLHGVKKTNLVLDPFMGIGSTAIACIRLGIDYIGFEIDEYYCRVAEERIKKELLKTDGKFDNVKNKNIITLDAFI	not soluble
MKLLFTSAFTQMFGYSNHMDQASNCQSTRNKIIKMMKKEEFPSGFQVPLHYPKYSKSDYEVMDDLRLDLLLKQYGFSFEGSLEDKRVFAIESFLWPDQL	soluble
